Measured values published in the supplement of paper PMC11780869.

System: Bacillus subtilis
Assay: cleaved RNA product abundance (RNA/gDNA barcode ratio) relative to median wild-type variant (ratio to wild type); higher = more accumulation of the downstream cleavage product
Conditions: experiment (reporter, strain, medium): exp 8a: truncated aprE reporter, strain BJT201 with 2% xylose (RNase J1 expressed); cleavage site: glnRA (positions -5 to +31 mutated)
How it was run: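 Reporter mRNAs (truncated aprE or tetM) carrying barcoded, mutagenized RNase Y cleavage-site windows were made from oligos with a 9% error rate and integrated into the B. subtilis chromosome. Cultures grew in LB at 37°C from OD600 0.0003 to 0.3. Cleaved RNA was gel-selected, reverse transcribed and barcode-sequenced alongside genomic DNA barcodes, with UMI collapsing. Cleaved product abundance is the RNA:gDNA barcode ratio per variant, scaled to the median wild-type variant.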

Sequence	cleaved RNA product abundance
CGACATGTCCCGCTTCTTTCATTAATCTGTTAGCAACTGTTTTGCTATATCCATTTACCTTTTAAGAGGAGGAAT	0.263
CGACATGTCCCGCTTCTTTCATTAATCTGTTAGCAACTGTTTTGCTTTATACATTTACCTTTTAAGAGGAGGAAT	0.247
CGACATGTCCCGCTTCTTTCATTAATCTGTTAGCAACTGTTTTGGTATATACATTTACCTTTTAAGAGGAGGAAT	0.264
CGACATGTCCCGCTTCTTTCATTAATCTGTTAGCAACTGTTTTTCTATATACATTTACCTTTTAAGAGGAGGAAT	0.483
CGACATGTCCCGCTTCTTTCATTAATCTGTTAGCAACTTTTTTGCTATATACATTTACCTTTTAAGAGGAGGAAT	0.706
CGACATGTCCCGCTTCTTTCATTAATCTGTTAGCAATTGTTTTGCTATATACATTTACCTTTTAAGAGGAGGAAT	1.59
CGACATGTCCCGCTTCTTTCATTAATCTGTTAGCTACTGTTTTGCTATATACATTTACCTTTTAAGAGGAGGAAT	0.743
CGACATGTCCCGCTTCTTTCATTAATCTGTTAGGAACTGTTTTGCTATATACATTTACCTTTTAAGAGGAGGAAT	0.268
CGACATGTCCCGCTTCTTTCATTAATCTGTTATCAACTGTTTTGCTATATACATTTACCTTTTAAGAGGAGGAAT	0.403
CGACATGTCCCGCTTCTTTCATTAATCTGTTATCAATTGTTTTGCTATATACATTTACCTTTTAAGAGGAGGAAT	0.383
CGACATGTCCCGCTTCTTTCATTAATCTTTTAGCAACTGTTTTACTATATACATTTACCTTTTAAGAGGAGGAAT	0.94
CGACATGTCCCGCTTCTTTCATTAATCTTTTAGCAACTGTTTTGCTATATACATTTACCTTTTAAGAGGAGGAAT	1.14
CGACATGTCCCGCTTCTTTCATTAATGAGTTAGCAACTGTTTTGCTATATACATTTACCTTTTAAGAGGAGGAAT	1.18
CGACATGTCCCGCTTCTTTCATTAATGCGATAGCAACTGTTTTGCTATATACATTTACCTTTTAAGAGGAGGAAT	0.395
CGACATGTCCCGCTTCTTTCATTAATGCGTTAACAACTGTTTTGCTATATACATTTACCTTTTAAGAGGAGGAAT	0.228
CGACATGTCCCGCTTCTTTCATTAATGCGTTAGCAAATGTTTTGCTATATACATTTACCTTTTAAGAGGAGGAAT	0.927
CGACATGTCCCGCTTCTTTCATTAATGCGTTAGCAACTATTTTGCTATATACATTTACCTTTTAAGAGGAGGAAT	1.28
CGACATGTCCCGCTTCTTTCATTAATGCGTTAGCAACTGTGTTGCTATATACATTTACCTTTTAAGAGGAGGAAT	0.406
CGACATGTCCCGCTTCTTTCATTAATGCGTTAGCAACTGTTTTACTATATACATTTACCTTTTAAGAGGAGGAAT	0.324
CGACATGTCCCGCTTCTTTCATTAATGCGTTAGCAACTGTTTTGCTATATACATTCACCTTTTAAGAGGAGGAAT	0.329
CGACATGTCCCGCTTCTTTCATTAATGCGTTAGCAACTGTTTTGCTATATACATTTACATTTTAAGAGGAGGAAT	0.652
CGACATGTCCCGCTTCTTTCATTAATGCGTTAGCAACTGTTTTGCTATATACATTTACCTTTTAAGAGGAGGAAT	0.633
CGACATGTCCCGCTTCTTTCATTAATGCGTTAGCAACTGTTTTGCTATATAGATTTACCCTTTAAGAGGAGGAAT	0.761
CGACATGTCCCGCTTCTTTCATTAATGCGTTAGCAACTGTTTTGGTATATACATTTACCTTTTAAGAGGAGGAAT	0.244
CGACATGTCCCGCTTCTTTCATTAATGCGTTAGCAACTGTTTTTCTATATACATTTACCTTTTAAGAGGAGGAAT	0.479

Sequence	cleaved RNA product abundance
CGACATGTCCCGCTTCTTTCATTAATGCGTTAGCAATTGTTTTGCTATATACATTTACCTTTTAAGAGGAGGAAT	0.995
CGACATGTCCCGCTTCTTTCATTAATGCTTTAGCAACTGTTTTGCTATATACATTTACCTTTTAAGAGGAGGAAT	0.618
CGACATGTCCCGCTTCTTTCATTAATTCATTAGCAACTGTTTTGCTATATACATTTACCTTTTAAGAGGAGGAAT	0.776
CGACATGTCCCGCTTCTTTCATTAATTCGTCAGCAACTGTTTTGCTATATACATTTACCTTTTAAGAGGAGGAAT	0.639
CGACATGTCCCGCTTCTTTCATTAATTCGTTAACAACTGTTTTGCTATATACATTTACCTTTTAAGAGGAGGAAT	0.209
CGACATGTCCCGCTTCTTTCATTAATTCGTTACCAACTGTTTTGCTATATACATTTACCTTTTAAGAGGAGGAAT	0.231
CGACATGTCCCGCTTCTTTCATTAATTCGTTAGAAACTGTTTTGCTATATACATTTACCTTTTAAGAGGAGGAAT	0.285
CGACATGTCCCGCTTCTTTCATTAATTCGTTAGCAAATGTTTTGCAATATACATTTACCTTTTAAGAGGAGGAAT	0.563
CGACATGTCCCGCTTCTTTCATTAATTCGTTAGCAAATGTTTTGCTATATACATTTACCTTTTAAGAGGAGGAAT	0.87
CGACATGTCCCGCTTCTTTCATTAATTCGTTAGCAACAGTTTTGCTATATACATTTACCTTTTAAGAGGAGGAAT	0.913
CGACATGTCCCGCTTCTTTCATTAATTCGTTAGCAACTATTTTGCTATATACATTTACCTTTTAAGAGGAGGAAT	1.64
CGACATGTCCCGCTTCTTTCATTAATTCGTTAGCAACTGATTTGCTATATACATTTACCTTTTAAGAGGAGGAAT	0.876
CGACATGTCCCGCTTCTTTCATTAATTCGTTAGCAACTGCTTTGCTATATACATTTACCTTTTAAGAGGAGGAAT	0.6
CGACATGTCCCGCTTCTTTCATTAATTCGTTAGCAACTGTATTGCAATATACATTTACCTTTTAAGAGGAGGAAT	0.329
CGACATGTCCCGCTTCTTTCATTAATTCGTTAGCAACTGTCTTGCTATATACATTTACCTTTTAAGAGGAGGAAT	0.981
CGACATGTCCCGCTTCTTTCATTAATTCGTTAGCAACTGTTATGCTATATACATTTACCTTTTAAGAGGAGGAAT	1.05
CGACATGTCCCGCTTCTTTCATTAATTCGTTAGCAACTGTTTAGCTATATACATTTACCTTTTAAGAGGAGGAAT	0.488
CGACATGTCCCGCTTCTTTCATTAATTCGTTAGCAACTGTTTTACTATATACATTTACCTTTTAAGAGGAGGAAT	0.749
CGACATGTCCCGCTTCTTTCATTAATTCGTTAGCAACTGTTTTCCTATATACATTTACCTTTTAAGAGGAGGAAT	0.485
CGACATGTCCCGCTTCTTTCATTAATTCGTTAGCAACTGTTTTGATATATACATTTACCTTTTAAGAGGAGGAAT	0.498
CGACATGTCCCGCTTCTTTCATTAATTCGTTAGCAACTGTTTTGCCATATACATTTACCTTTTAAGAGGAGGAAT	0.237
CGACATGTCCCGCTTCTTTCATTAATTCGTTAGCAACTGTTTTGCTAAATACATTTACCTTTTAAGAGGAGGAAT	0.362
CGACATGTCCCGCTTCTTTCATTAATTCGTTAGCAACTGTTTTGCTATACACATTTACCTTTTAAGAGGAGGAAT	0.585
CGACATGTCCCGCTTCTTTCATTAATTCGTTAGCAACTGTTTTGCTATATAAATTTACCTTTTAAGAGGAGGAAT	1.12
CGACATGTCCCGCTTCTTTCATTAATTCGTTAGCAACTGTTTTGCTATATACAATTACCTTTTAAGAGGAGGAAT	1.18
